Results taken from patent US20030180744, “High affinity oligonucleotide ligands to growth factors” (GILEAD SCIENCES, INC., published 2003).
Substitutions are numbered along the chain they refer to.

T1: KGF (hKGF) (Homo sapiens, UniProt P21781 P21781:32-194)
T1 sequence: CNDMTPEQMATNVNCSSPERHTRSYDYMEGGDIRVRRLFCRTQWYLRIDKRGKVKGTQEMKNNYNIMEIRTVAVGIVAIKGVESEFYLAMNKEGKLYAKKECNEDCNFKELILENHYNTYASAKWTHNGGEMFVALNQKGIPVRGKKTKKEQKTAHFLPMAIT

B1: 53F (ssRNA)
RNA: GGGAGGACGAUGCGGAUCAAAAGCACUCAUUCCCGUGCUCGCUUCAUUGGUCCCCCAGACGACUCGCCCGA
modifications: 2'-F pyrimidines
B2: 54F (ssRNA)
RNA: GGGAGGACGAUGCGGAAGAUCUCCCAACUGCUGUGGCUAAUAAUUCUCUCCGCGUCCCCAGACGACUCGCCCGA
modifications: 2'-F pyrimidines
B3: 55F (ssRNA)
RNA: GGGAGGACGAUGCGGUCCGUCAUAACGGCCAUAAACUGCGAAUACUCCCUGGCCCAGACGACUCGCCCGA
modifications: 2'-F pyrimidines
B4: 57F (ssRNA)
RNA: GGGAGGACGAUGCGGUGACUAUCUGGCUCGAUCCAAUCACCCGAGCCCACCGCGCCAGACGACUCGCCCGA
modifications: 2'-F pyrimidines
B5: 58F (ssRNA)
RNA: GGGAGGACGAUGCGGGAACUAAUGGCCGUGAUUAACCAAUGCAGGCUUCCUGCGCCAGACGACUCGCCCGA
modifications: 2'-F pyrimidines
B6: 60F (ssRNA)
RNA: GGGAGGACGAUGCGGUGACAUGGAAUUUUCUACGGGCCCGAUCCUGCCAGCCGUGUGCAGACGACUCGCCCGA
modifications: 2'-F pyrimidines
B7: 10N (ssRNA)
RNA: GGGAGGACGAUGCGGUAGCUGCUGUCAUGCAAGACACUAGAAGAUUAAGAUGGGGCAGACGACUCGCCCGA
modifications: 2'-NH2 pyrimidines
B8: 11N (ssRNA)
RNA: GGGAGGACGAUGCGGGGGCCGGAUUUGAACCGACGACUUCGGGUUAUGAGCCCGACGUCAGACGACUCGCCCGA
modifications: 2'-NH2 pyrimidines
B9: 16N (ssRNA)
RNA: GGGAGGACGAUGCGGAAGUUCUAACAAGUUAGUGGAAGGUUCCACUUGAAUGUACAGACGACUCGCCCGA
modifications: 2'-NH2 pyrimidines
B10: 24N (ssRNA)
RNA: GGGAGGACGAUGCGGGUGGGAAGAUGAGCCGGUCGGCAGUAAUGUGACACUGCGGCAGACGACUCGCCCGA
modifications: 2'-NH2 pyrimidines
B11: 25N (ssRNA)
RNA: GGGAGGACGAUGCGGGAGGGAAUGAGGAAACAACUAGCAGAUAACCGAGCUGGCCAGACGACUCGCCCGA
modifications: 2'-NH2 pyrimidines
B12: 28N (ssRNA)
RNA: GGGAGGACGAUGCGGUUGCUCUACAAUGACGCGGUGACUCCGCAGUUCUUGGACACAGACGACUCGCCCGA
modifications: 2'-NH2 pyrimidines
B13: 34N (ssRNA)
RNA: GGGAGGACGAUGCGGGCGGGAAGAGCUAAUGGAAGUGGAAUCAGUCACAGUGCGGCAGACGACUCGCCCGA
modifications: 2'-NH2 pyrimidines
B14: 35N (ssRNA)
RNA: GGGAGGACGAUGCGGGCUUAGGGAAAUGGUUCUGAGGUGGUCAGACGACUCGCCCGA
modifications: 2'-NH2 pyrimidines
B15: 36N (ssRNA)
RNA: GGGAGGACGAUGCGGGAAGGGAACAGGAUAAGACAAGUCGAACAAAGCCGAGGUGCAGACGACUCGCCCGA
modifications: 2'-NH2 pyrimidines
B16: 47N (ssRNA)
RNA: GGGAGGACGAUGCGGGAAGGGUAGGAAGGUCAAGAGGAAACAGCGCUUCGGGGUGCAGACGACUCGCCCGA
modifications: 2'-NH2 pyrimidines
B17: 48N (ssRNA)
RNA: GGGAGGACGAUGCGGGGCAAAGGAAGUUGGAAUCGGGACUAAGUAGUGUGUGGCCAGACGACUCGCCCGA
modifications: 2'-NH2 pyrimidines
B18: 55N (ssRNA)
RNA: GGGAGGACGAUGCGGACACACAAGUGAAGGUCAGACGCGAAUUACGUGGGUGGGCAGACGACUCGCCCGA
modifications: 2'-NH2 pyrimidines
B19: 60N (ssRNA)
RNA: GGGAGGACGAUGCGGCCCCUUAGCUCAGUGGUUAGAGCAGACGACUCGCCCGA
modifications: 2'-NH2 pyrimidines
B20: 69N (ssRNA)
RNA: GGGAGGACGAUGCGGGUAGGGAGUAGGACAGACAUAACAGUGCAACCAUCGUGGCCAGACGACUCGCCCGA
modifications: 2'-NH2 pyrimidines
B21: 71N (ssRNA)
RNA: GGGAGGACGAUGCGGAAACGGCGUGGCAAAAGUGAGGGGGUAGGAUGUACCAUGGGUCAGACGACUCGCCCGA
modifications: 2'-NH2 pyrimidines
B22: 72N (ssRNA)
RNA: GGGAGGACGAUGCGGGAGGGGAAAAUGAGACCGACAGAUUGACGGAAGUACUGGGCAGACGACUCGCCCGA
modifications: 2'-NH2 pyrimidines
B23: 2F (ssRNA)
RNA: GGGAGGACGAUGCGGGCAUUCGUCAAUACCUUGUUUUAUUCCUUUUCUAGCGGCCCAGACGACUCGCCCGA
modifications: 2'-F pyrimidines
B24: 3F (ssRNA)
RNA: GGGAGGACGAUGCGGAUCGUAAUCGCCACUACUACUUUCCGAACCCGCACGUGGCCAGACGACUCGCCCGA
modifications: 2'-F pyrimidines
B25: 5F (ssRNA)
RNA: GGGAGGACGAUGCGGCGUCCCGAGUCACGCUGUCCUGAUAACCUUCUCUGUGCCCAGACGACUCGCCCGA
modifications: 2'-F pyrimidines
B26: 7F (ssRNA)
RNA: GGGAGGACGAUGCGGCGGGUACUCUUCGCCAGCUCCUCCAAGCGCGACCUGUGCCCAGACGACUCGCCCGA
modifications: 2'-F pyrimidines
B27: 8F (ssRNA)
RNA: GGGAGGACGAUGCGGUUUCGAAUAGGGCCAUUUCUCACUAGCUAUCCUACCCUGCCCAGACGACUCGCCCGA
modifications: 2'-F pyrimidines
B28: 9F (ssRNA)
RNA: GGGAGGACGAUGCGGAUAAUGGCUAGAACUAGCUCGCAUCUUGGUGUCCGGUGCCCAGACGACUCGCCCGA
modifications: 2'-F pyrimidines
B29: 11F (ssRNA)
RNA: GGGAGGACGAUGCGGUGAUGGCGACCAGUCAAACCGGUGCUUUUACUCCCCCGCCAGACGACUCGCCCGA
modifications: 2'-F pyrimidines
B30: 22F (ssRNA)
RNA: GGGAGGACGAUGCGGCCUGAAGUACAGGCUCUAAACUCCAAGCGCGACCGUCCGCCAGACGACUCGCCCGA
modifications: 2'-F pyrimidines
B31: 23F (ssRNA)
RNA: GGGAGGACGAUGCGGCCCUACCACUUUUUCCCUCUACUGUUAUCCUGUCCCCCAGACGACUCGCCCGA
modifications: 2'-F pyrimidines
B32: 24F (ssRNA)
RNA: GGGAGGACGAUGCGGUGGUCUCCCUAGAUCUACAGCACUUCCAUCGCAUUGGGCCAGACGACUCGCCCGA
modifications: 2'-F pyrimidines
B33: 27F (ssRNA)
RNA: GGGAGGACGAUGCGGCAGUCUGGAUCUCUAUUGGAAUUUAGUCCUCAACUGUGCCCCAGACGACUCGCCCGA
modifications: 2'-F pyrimidines
B34: 29F (ssRNA)
RNA: GGGAGGACGAUGCGGGGACUUCAACUAAGUCCUCAUUUGCCUCGCUCCUCGUGCCCAGACGACUCGCCCGA
modifications: 2'-F pyrimidines
B35: 35F (ssRNA)
RNA: GGGAGGACGAUGCGGCGAAAUUAGCUUCUUAUGACUCACGUUUCCUUGCCGCCCCAGACGACUCGCCCGA
modifications: 2'-F pyrimidines
B36: 41F (ssRNA)
RNA: GGGAGGACGAUGCGGGGACUUUGACAGGCAUUGAUUUCGACCUGUUCCCCGUGGCCAGACGACUCGCCCGA
modifications: 2'-F pyrimidines
B37: 42F (ssRNA)
RNA: GGGAGGACGAUGCGGCGACACAAUAGCCUUUGAUCCCAUGAUGGCUCGCCGUGCCCAGACGACUCGCCCGA
modifications: 2'-F pyrimidines
B38: 45F (ssRNA)
RNA: GGGAGGACGAUGCGGGUCGUAUUCAUCUCCUUGUUCUGUUUCGUUGCACCUGGCCCAGACGACUCGCCCGA
modifications: 2'-F pyrimidines
B39: 49F (ssRNA)
RNA: B36 RNA with C42G
modifications: 2'-F pyrimidines
B40: 54N (ssRNA)
RNA: GGGAGGACGAUGCGGAGAACCAACAGAGCCCCCUGGUGGUGGGGGAAGGAUUCUCAGACGACUCGCCCGA
modifications: 2'-NH2 pyrimidines

These binders were tested against T1, KGF (hKGF) (assay: filter; DPBS, 37 C). Settings: tags: Upstate Biotechnology; label: 32P.
B1 was tested, and the Kd was 0.7 nM.
B2 was tested, and the Kd was 1.23 nM.
With B3 the Kd was 2.52 nM.
With B4 the Kd was 1.2 nM.
For B5, the Kd was 2.52 nM.
With B6 the Kd was 2.1 nM.
For B7, the Kd was 1.1 nM.
B8 gave a Kd of 1.28 nM.
B9 gave a Kd of 1.4 nM.
GGGAGGACGAUGCGGAUGGAGCUGAAAUCAGACGACUCGCCCGA (ssRNA, 2'-NH2 pyrimidines) [22N] was tested, and the Kd was 5.7 nM.
B10 gave a Kd of 1.16 nM.
Work on B11 yielded a Kd of 0.87 nM.
B12 showed a Kd of 2.54 nM.
Binder B13 has a Kd of 0.8 nM.
In the case of B14, the Kd is reported as 2.32 nM.
In the case of B15, the Kd is reported as 8.27 nM.
With B16 the Kd was 1.76 nM.
With B17 the Kd was 1.34 nM.
In the case of B18, the Kd is reported as 1.25 nM.
With B19 the Kd was 7.38 nM.
Work on B20 yielded a Kd of 15.2 nM.
Work on B21 yielded a Kd of 3.52 nM.
B22 gave a Kd of 7.67 nM.
In the case of B23, the Kd is reported as 1.77 nM.
With B24 the Kd was 4.47 nM.
B25 was tested, and the Kd was 2.53 nM.
In the case of B26, the Kd is reported as 3.69 nM.
Binder B27 has a Kd of 2.63 nM.
For B28, the Kd was 0.83 nM.
In the case of B29, the Kd is reported as 3.74 nM.
B30 gave a Kd of 2.75 nM.
With B31 the Kd was 2.52 nM.
Work on B32 yielded a Kd of 2.02 nM.
In the case of B33, the Kd is reported as 1.52 nM.
Work on B34 yielded a Kd of 3.24 nM.
In the case of B35, the Kd is reported as 1.1 nM.
With B36 the Kd was 1.44 nM.
B37 showed a Kd of 0.9 nM.
In the case of B38, the Kd is reported as 4.7 nM.
Binder B39 has a Kd of 1 nM.

Same assay, conditions: tags: Upstate Biotechnology; label: 32P; dumbbell (predicted)
Binder B40 has a Kd of 5.35 nM.
